In assay [1] the target is soluble recombinant human DC-SIGN tetramers (human) (UniProt Q9NNX6). The experiment in a line: ELISA; binding to human DC-SIGN of Igs untreated or treated with PNGase F, Endo S or Endo H (Figure S8); format not told in the text shown. For orientation: In an ELISA, binding on a coated surface is turned into a signal by an enzyme label.
The target of assay [2] is hIgG1-Fc-CL309/310CH-TP. The experiment in a line: non-reducing SDS-PAGE (blot and Coomassie); 5 μg purified Fc on 4-12% bis-Tris gradient gels, non-reducing or reducing; blot with goat anti-human IgG or Coomassie blue.
Assay [3] deals with soluble recombinant human DC-SIGN tetramers (human) (UniProt Q9NNX6). The assay is described as follows: SPR; multichannel SPR (ProteOn XPR36); DC-SIGN or SIGNR1 amine-coupled on GLM chips; Ig preparations or gp120 as analytes, 25°C, 25 μl per minute; 1:1 Langmuir model. (In general: In SPR one partner is held on a chip, and binding of the other changes the refractive index at the surface.)

The target in assay [4] is recombinant SIGNR1 (mouse) (UniProt Q8CJ91). Described as above.
Assay [5] has as its target T1, recombinant SIGNR1 (mouse, UniProt Q8CJ91 1-325).
T1 construct: mouse SIGNR1, soluble recombinant; also called the mouse orthologue of the human DC-SIGN; source: bought: R&D systems
T1 sequence (looked up): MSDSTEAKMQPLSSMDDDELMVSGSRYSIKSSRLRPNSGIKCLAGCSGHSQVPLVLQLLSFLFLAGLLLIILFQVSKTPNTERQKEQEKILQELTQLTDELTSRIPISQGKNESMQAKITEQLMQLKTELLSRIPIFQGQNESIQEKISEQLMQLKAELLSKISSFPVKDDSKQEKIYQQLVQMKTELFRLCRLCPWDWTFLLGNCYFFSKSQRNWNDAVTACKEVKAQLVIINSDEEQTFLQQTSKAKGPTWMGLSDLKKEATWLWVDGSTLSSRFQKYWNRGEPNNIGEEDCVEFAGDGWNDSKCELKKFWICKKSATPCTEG
The description is as above. Particulars: both partners purified.

Assay [6] has as its target T2, soluble recombinant human DC-SIGN tetramers (human, UniProt Q9NNX6 1-404).
T2 construct: human DC-SIGN, soluble recombinant; also called dendritic cell-specific intercellular adhesion molecule-3-grabbing non-integrin
T2 sequence (looked up): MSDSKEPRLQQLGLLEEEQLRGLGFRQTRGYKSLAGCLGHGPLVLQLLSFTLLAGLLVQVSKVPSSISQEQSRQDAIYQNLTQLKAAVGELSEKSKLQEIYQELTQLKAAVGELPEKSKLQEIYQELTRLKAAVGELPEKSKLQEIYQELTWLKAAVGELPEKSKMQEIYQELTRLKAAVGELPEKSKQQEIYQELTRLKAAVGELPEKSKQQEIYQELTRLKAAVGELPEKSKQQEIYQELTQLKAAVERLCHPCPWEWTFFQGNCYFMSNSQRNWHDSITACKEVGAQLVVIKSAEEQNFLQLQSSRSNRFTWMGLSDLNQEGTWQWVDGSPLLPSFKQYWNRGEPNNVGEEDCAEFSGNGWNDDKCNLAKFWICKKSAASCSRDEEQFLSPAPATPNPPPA
The assay is described as above. Particulars: both partners purified.

5 molecules from paper PMC5224519, “Developing the IVIG biomimetic, Hexa-Fc, for drug and vaccine applications” (Scientific Reports, 2015) can be followed below.

PNGase F treated human IgM (antibody): the residual binding in assay [1] was 50%.

On to hIgG1-Fc-CL309/310CH-TP, for which the stoichiometry N in assay [2] stood at 6.

On to “hexameric-Fc (hexa-Fc), hIgG1-Fc-TP-LH309/310CL”, for which, in assay [3], the Kd is 1260 nM, the koff was 0.000839 s⁻¹ and the association rate constant (kon) amounted to 668 M⁻¹ s⁻¹.

Regarding recombinant HIV gp120 (natural protein), in assay [3], the Kd is 4.39 nM, the off-rate (koff) worked out at 0.000158 s⁻¹ and the association rate constant (kon) stood at 36000 M⁻¹ s⁻¹. For the same molecule, in assay [4], the Kd stood at 3.91 nM, the koff amounted to 9.46e-05 s⁻¹ and the kon amounted to 27700 M⁻¹ s⁻¹.

B1: CHO cell derived recombinant (hexameric) IgM-Fc (domain or fragment)
chain: IAELPPKVSVFVPPRDGFFGNPRKSKLICQATGFSPRQIQVSWLREGKQVGSGVTTDQVQAEAKESGPTTYKVTSTLTIKESDWLGQSMFTCRVDHRGLTFQQNASSMCVPDQDTAIRVFAIPPSFASIFLTKSTKLTCLVTDLTTYDSVTISWTRQNGEAVKTHTNISESHPNATFSAVGEASICEDDWNSGERFTCTVTHTDLPSPLKQTISRPKGVALHRPDVYLLPPAREQLNLRESATITCLVTGFSPADVFVQWMQRGQPLSPEKYVTSAPMPEPQAPGRYFAHSILTVSEEEWNTGETYTCVVAHEALPNRVTERTVDKSTGKPTLYNVSLVMSDTAGTCY
modifications: CHO-cell N-glycans; disulfide-linked hexamer. Limits taken as Cmu2-Cmu4 plus tailpiece; needs the secreted isoform (453 aa), not the 474-aa membrane form displayed as P01871
As to B1, the Kd stood at 2200 nM in assay [5] and 260 nM in assay [6].

What is called stoichiometry N is the number of molecules, sites or subunits per partner or assembly. The Kd is a measure of binding affinity in units of concentration. What is called koff is a measure of how fast the partners let go of each other. As a reminder, the kon is the second-order rate constant of association.
